# In the supplement of paper PMC11316812:
# ± gives the standard deviation of the averaged measurements.
# Tests used:
# MCF7 = test: percentage of EdU-negative (G0-arrested) nuclei per well, 72 h; higher = more G0 arrest; conditions: reference: sequence is the full UniProt precursor, the tested protein was the secreted form or ectodomain
# hTERT-HMEC = test: as above; conditions: reference: sequence is the full UniProt precursor, the tested protein was the secreted form or ectodomain
# [1] = protein concentration 0.0225 µM
# [2] = protein concentration 0.03125 µM
# [3] = protein concentration 0.3125 µM
# [4] = protein concentration 0.018565 µM
# [5] = protein concentration 0.18565 µM
# [6] = protein concentration 0.0211429 µM
# [7] = protein concentration 0.211429 µM
# [8] = protein concentration 0.01025 µM
# [9] = protein concentration 0.1025 µM
# 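Note: secreted proteins added to cultured cells, EdU pulse at the end, nuclei found by Hoechst imaging, EdU status from nuclear versus surrounding ring intensity ratio, PBS as neutral control.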
sequence,measurement,setting,value
MLCLGWIFLWLVAGERIKGFNISGCSTKKLLWTYSTRSEEEFVLFCDLPEPQKSHFCHRNRLSPKQVPEHLPFMGSNDLSDVQWYQQPSNGDPLEDIRKSYPHIIQDKCTLHFLTPGVNNSGSYICRPKMIKSPYDVACCVKMILEVKPQTNASCEYSASHKQDLLLGSTGSISCPSLSCQSDAQSPAVTWYKNGKLLSVERSNRIVVDEVYDYHQGTYVCDYTQSDTVSSWTVRAVVQVRTIVGDTKLKPDILDPVEDTLEVELGKPLTISCKARFGFERVFNPVIKWYIKDSDLEWEVSVPEAKSIKSTLKDEIIERNIILEKVTQRDLRRKFVCFVQNSIGNTTQSVQLKEKRGVVLLYILLGTIGTLVAVLAASALLYRHWIEIVLLYRTYQSKDQTLGDKKDFDAFVSYAKWSSFPSEATSSLSEEHLALSLFPDVLENKYGYSLCLLERDVAPGGVYAEDIVSIIKRSRRGIFILSPNYVNGPSIFELQAAVNLALDDQTLKLILIKFCYFQEPESLPHLVKKALRVLPTVTWRGLKSVPPNSRFWAKMRYHMPVKNSQGFTWNQLRITSRIFQWKGLSRTETTGRSSQPKEW,percentage of EdU-negative,MCF7; [1],26.2 ± 0.97%
same,percentage of EdU-negative,MCF7; protein concentration 0.225 µM,24.78 ± 0.22%
same,percentage of EdU-negative,hTERT-HMEC; [1],5.27 ± 0.17%
same,percentage of EdU-negative,hTERT-HMEC; protein concentration 0.225 µM,4.77 ± 0.22%
MARVLKAAAANAVGLFSRLQAPIPTVRASSTSQPLDQVTGSVWNLGRLNHVAIAVPDLEKAAAFYKNILGAQVSEAVPLPEHGVSVVFVNLGNTKMELLHPLGRDSPIAGFLQKNKAGGMHHICIEVDNINAAVMDLKKKKIRSLSEEVKIGAHGKPVIFLHPKDCGGVLVELEQA [Q96PE7],percentage of EdU-negative,MCF7; [1],23.93 ± 0.19%
same,percentage of EdU-negative,MCF7; protein concentration 0.225 µM,23.1 ± 1.4%
same,percentage of EdU-negative,hTERT-HMEC; [1],5.15 ± 0.63%
same,percentage of EdU-negative,hTERT-HMEC; protein concentration 0.225 µM,6.08 ± 0.26%
MVLCWLLLLVMALPPGTTGVKDCVFCELTDSMQCPGTYMHCGDDEDCFTGHGVAPGTGPVINKGCLRATSCGLEEPVSYRGVTYSLTTNCCTGRLCNRAPSSQTVGATTSLALGLGMLLPPRLL [Q8TDM5],percentage of EdU-negative,MCF7; [1],27.6 ± 0.57%
same,percentage of EdU-negative,MCF7; protein concentration 0.225 µM,25.47 ± 0.088%
same,percentage of EdU-negative,hTERT-HMEC; [1],4.81 ± 0.12%
same,percentage of EdU-negative,hTERT-HMEC; protein concentration 0.225 µM,5.43 ± 0.73%
MGPLSAPPCTQHITWKGLLLTASLLNFWNLPITAQVTIEALPPKVSEGKDVLLLVHNLPQNLAGYIWYKGQLMDLYHYITSYVVDGQINIYGPAYTGRETVYSNASLLIQNVTREDAGSYTLHIIKRGDRTRGVTGYFTFNLYLKLPKPYITINNSKPRENKDVLAFTCEPKSENYTYIWWLNGQSLPVSPRVKRPIENRILILPSVTRNETGPYECEIRDRDGGMRSDPVTLNVLYGPDLPSIYPSFTYYRSGENLYLSCFAESNPPAEYFWTINGKFQQSGQKLSIPQITTKHRGLYTCSVRNSATGKESSKSMTVEVSAPSGIGRLPLLNPI,percentage of EdU-negative,MCF7; [2],24.6 ± 2.5%
same,percentage of EdU-negative,MCF7; [3],26.86 ± 0.057%
same,percentage of EdU-negative,hTERT-HMEC; [2],4.75 ± 0.52%
same,percentage of EdU-negative,hTERT-HMEC; [3],4.28 ± 0.12%
MSLSAFTLFLALIGGTSGQYYDYDFPLSIYGQSSPNCAPECNCPESYPSAMYCDELKLKSVPMVPPGIKYLYLRNNQIDHIDEKAFENVTDLQWLILDHNLLENSKIKGRVFSKLKQLKKLHINHNNLTESVGPLPKSLEDLQLTHNKITKLGSFEGLVNLTFIHLQHNRLKEDAVSAAFKGLKSLEYLDLSFNQIARLPSGLPVSLLTLYLDNNKISNIPDEYFKRFNALQYLRLSHNELADSGIPGNSFNVSSLVELDLSYNKLKNIPTVNENLENYYLEVNQLEKFDIKSFCKILGPLSYSKIKHLRLDGNRISETSLPPDMYECLRVANEVTLN,percentage of EdU-negative,MCF7; [4],25.7 ± 0.65%
same,percentage of EdU-negative,MCF7; [5],25.1 ± 0.99%
same,percentage of EdU-negative,hTERT-HMEC; [4],5.59 ± 1.8%
same,percentage of EdU-negative,hTERT-HMEC; [5],6.27 ± 1.2%
MMDIYVCLKRPSWMVDNKRMRTASNFQWLLSTFILLYLMNQVNSQKKGAPHDLKCVTNNLQVWNCSWKAPSGTGRGTDYEVCIENRSRSCYQLEKTSIKIPALSHGDYEITINSLHDFGSSTSKFTLNEQNVSLIPDTPEILNLSADFSTSTLYLKWNDRGSVFPHRSNVIWEIKVLRKESMELVKLVTHNTTLNGKDTLHHWSWASDMPLECAIHFVEIRCYIDNLHFSGLEEWSDWSPVKNISWIPDSQTKVFPQDKVILVGSDITFCCVSQEKVLSALIGHTNCPLIHLDGENVAIKIRNISVSASSGTNVVFTTEDNIFGTVIFAGYPPDTPQQLNCETHDLKEIICSWNPGRVTALVGPRATSYTLVESFSGKYVRLKRAEAPTNESYQLLFQMLPNQEIYNFTLNAHNPLGRSQSTILVNITEKVYPHTPTSFKVKDINSTAVKLSWHLPGNFAKINFLCEIEIKKSNSVQEQRNVTIKGVENSSYLVALDKLNPYTLYTFRIRCSTETFWKWSKWSNKKQHLTTEASPSKGPDTWREWSSDGKNLIIYWKPLPINEANGKILSYNVSCSSDEETQSLSEIPDPQHKAEIRLDKNDYIISVVAKNSVGSSPPSKIASMEIPNDDLKIEQVVGMGKGILLTWHYDPNMTCDYVIKWCNSSRSEPCLMDWRKVPSNSTETVIESDEFRPGIRYNFFLYGCRNQGYQLLRSMIGYIEELAPIVAPNFTVEDTSADSILVKWEDIPVEELRGFLRGYLFYFGKGERDTSKMRVLESGRSDIKVKNITDISQKTLRIADLQGKTSYHLVLRAYTDGGVGPEKSMYVVTKENSVGLIIAILIPVAVAVIVGVVTSILCYRKREWIKETFYPDIPNPENCKALQFQKSVCEGSSALKTLEMNPCTPNNVEVLETRSAFPKIEDTEIISPVAERPEDRSDAEPENHVVVSYCPPIIEEEIPNPAADEAGGTAQVIYIDVQSMYQPQAKPEEEQENDPVGGAGYKPQMHLPINSTVEDIAAEEDLDKTAGYRPQANVNTWNLVSPDSPRSIDSNSEIVSFGSPCSINSRQFLIPPKDEDSPKSNGGGWSFTNFFQNKPND,percentage of EdU-negative,MCF7; [6],24.2 ± 2%
same,percentage of EdU-negative,MCF7; [7],26.8 ± 0.8%
same,percentage of EdU-negative,hTERT-HMEC; [6],4.99 ± 0.47%
same,percentage of EdU-negative,hTERT-HMEC; [7],7.62 ± 0.7%
MGRPRPRAAKTWMFLLLLGGAWAGHSRAQEDKVLGGHECQPHSQPWQAALFQGQQLLCGGVLVGGNWVLTAAHCKKPKYTVRLGDHSLQNKDGPEQEIPVVQSIPHPCYNSSDVEDHNHDLMLLQLRDQASLGSKVKPISLADHCTQPGQKCTVSGWGTVTSPRENFPDTLNCAEVKIFPQKKCEDAYPGQITDGMVCAGSSKGADTCQGDSGGPLVCDGALQGITSWGSDPCGRSDKPGVYTNICRYLDWIKKIIGSKG,percentage of EdU-negative,MCF7; [1],26.4 ± 2.5%
same,percentage of EdU-negative,MCF7; protein concentration 0.225 µM,24.6 ± 0.69%
same,percentage of EdU-negative,hTERT-HMEC; [1],4.99 ± 0.28%
same,percentage of EdU-negative,hTERT-HMEC; protein concentration 0.225 µM,5.28 ± 0.5%
MSRELAPLLLLLLSIHSALAMRICSFNVRSFGESKQEDKNAMDVIVKVIKRCDIILVMEIKDSNNRICPILMEKLNRNSRRGITYNYVISSRLGRNTYKEQYAFLYKEKLVSVKRSYHYHDYQDGDADVFSREPFVVWFQSPHTAVKDFVIIPLHTTPETSVKEIDELVEVYTDVKHRWKAENFIFMGDFNAGCSYVPKKAWKNIRLRTDPRFVWLIGDQEDTTVKKSTNCAYDRIVLRGQEIVSSVVPKSNSVFDFQKAYKLTEEEALDVSDHFPVEFKLQSSRAFTNSKKSVTLRKKTKSKRS,percentage of EdU-negative,MCF7; [8],28.5 ± 1.3%
same,percentage of EdU-negative,MCF7; [9],27 ± 2%
same,percentage of EdU-negative,hTERT-HMEC; [8],4.824 ± 0.022%
same,percentage of EdU-negative,hTERT-HMEC; [9],5.74 ± 0.076%
MRAPGMRSRPAGPALLLLLLFLGAAESVRRAQPPRRYTPDWPSLDSRPLPAWFDEAKFGVFIHWGVFSVPAWGSEWFWWHWQGEGRPQYQRFMRDNYPPGFSYADFGPQFTARFFHPEEWADLFQAAGAKYVVLTTKHHEGFTNWPSPVSWNWNSKDVGPHRDLVGELGTALRKRNIRYGLYHSLLEWFHPLYLLDKKNGFKTQHFVSAKTMPELYDLVNSYKPDLIWSDGEWECPDTYWNSTNFLSWLYNDSPVKDEVVVNDRWGQNCSCHHGGYYNCEDKFKPQSLPDHKWEMCTSIDKFSWGYRRDMALSDVTEESEIISELVQTVSLGGNYLLNIGPTKDGLIVPIFQERLLAVGKWLSINGEAIYASKPWRVQWEKNTTSVWYTSKGSAVYAIFLHWPENGVLNLESPITTSTTKITMLGIQGDLKWSTDPDKGLFISLPQLPPSAVPAEFAWTIKLTGVK,percentage of EdU-negative,MCF7; [2],23.7 ± 2%
same,percentage of EdU-negative,MCF7; [3],27.8 ± 1.4%
same,percentage of EdU-negative,hTERT-HMEC; [2],5.35 ± 1.3%
same,percentage of EdU-negative,hTERT-HMEC; [3],6.003 ± 0.042%
MISPFLVLAIGTCLTNSLVPEKEKDPKYWRDQAQETLKYALELQKLNTNVAKNVIMFLGDGMGVSTVTAARILKGQLHHNPGEETRLEMDKFPFVALSKTYNTNAQVPDSAGTATAYLCGVKANEGTVGVSAATERSRCNTTQGNEVTSILRWAKDAGKSVGIVTTTRVNHATPSAAYAHSADRDWYSDNEMPPEALSQGCKDIAYQLMHNIRDIDVIMGGGRKYMYPKNKTDVEYESDEKARGTRLDGLDLVDTWKSFKPRYKHSHFIWNRTELLTLDPHNVDYLLGLFEPGDMQYELNRNNVTDPSLSEMVVVAIQILRKNPKGFFLLVEGGRIDHGHHEGKAKQALHEAVEMDRAIGQAGSLTSSEDTLTVVTADHSHVFTFGGYTPRGNSIFGLAPMLSDTDKKPFTAILYGNGPGYKVVGGERENVSMVDYAHNNYQAQSAVPLRHETHGGEDVAVFSKGPMAHLLHGVHEQNYVPHVMAYAACIGANLGHCAPASSAGSLAAGPLLLALALYPLSVLF,percentage of EdU-negative,MCF7; [1],26.1 ± 0.93%
same,percentage of EdU-negative,MCF7; protein concentration 0.225 µM,24.1 ± 2.4%
same,percentage of EdU-negative,hTERT-HMEC; [1],4.55 ± 0.2%
same,percentage of EdU-negative,hTERT-HMEC; protein concentration 0.225 µM,4.93 ± 0.7%
MTALFLMSMLFGLTCGQAMSFCIPTEYTMHIERRECAYCLTINTTICAGYCMTRDINGKLFLPKYALSQDVCTYRDFIYRTVEIPGCPLHVAPYFSYPVALSCKCGKCNTDYSDCIHEAIKTNYCTKPQKSYLVGFSV,percentage of EdU-negative,MCF7; protein concentration 0.017 µM,27.8 ± 3.8%
same,percentage of EdU-negative,MCF7; protein concentration 0.17 µM,27.2 ± 1.9%
same,percentage of EdU-negative,hTERT-HMEC; protein concentration 0.017 µM,5.28 ± 0.69%
same,percentage of EdU-negative,hTERT-HMEC; protein concentration 0.17 µM,9.97 ± 1.1%
